Test results published in article PMC7545097, “Mapping the native interaction surfaces of PREP1 with PBX1 by cross-linking mass-spectrometry and mutagenesis” (Scientific Reports, 2020).

B1: N-terminal GST-fused wild-type PREP1 [not stated] / PBX1_(1-430), wild-type recombinant [human] (parent complex)
chain 1: MMATQTLSIDSYQDGQQMQVVTELKTEQDPNCSEPDAEGVSPPPVESQTPMDVDKQAIYRHPLFPLLALLFEKCEQSTQGSEGTTSASFDVDIENFVRKQEKEGKPFFCEDPETDNLMVKAIQVLRIHLLELEKVNELCKDFCSRYIACLKTKMNSETLLSGEPGSPYSPVQSQQIQSAITGTISPQGIVVPASALQQGNVAMATVAGGTVYQPVTVVTPQGQVVTQTLSPGTIRIQNSQLQLQLNQDLSILHQDDGSSKNKRGVLPKHATNVMRSWLFQHIGHPYPTEDEKKQIAAQTNLTLLQVNNWFINARRRILQPMLDSSCSETPKTKKKTAQNRPVQRFWPDSIASGVAQPPPSELTMSEGAVVTITTPVNMNVDSLQSLSSDGATLAVQQVMMAGQSEDESVDSTEEDAGALAPAHISGLVLENSDSLQ
chain 2: MDEQPRLMHSHAGVGMAGHPGLSQHLQDGAGGTEGEGGRKQDIGDILQQIMTITDQSLDEAQARKHALNCHRMKPALFNVLCEIKEKTVLSIRGAQEEEPTDPQLMRLDNMLLAEGVAGPEKGGGSAAAAAAAAASGGAGSDNSVEHSDYRAKLSQIRQIYHTELEKYEQACNEFTTHVMNLLREQSRTRPISPKEIERMVSIIHRKFSSIQMQLKQSTCEAVMILRSRFLDARRKRRNFNKQATEILNEYFYSHLSNPYPSEEAKEELAKKCGITVSQVSNWFGNKRIRYKKNIGKFQEEANIYAAKTAVTATNVSAHGSQANSPSTPNSAGSSSSFNMSNSGDLFMSVQSLNGDSYQGAQVGANVQSQVDTLRHVISQTGGYSDGLAASQMYSPQGISANGGWQDATTPSSVTSPTEGPGSVHSDTSN
B2: PBX1_(1-430), wild-type recombinant [human] / PREP1_(1-436), wild-type recombinant (TR-FIA) [not stated] (parent complex)
chain 1: B1 chain 2
chain 2: B1 chain 1

Variants of: B1
Test: TR-FIA; parent: 1; read off a plot

Row | Variant | ratio to parent
1 | chain 1 MMATQTLSIDSYQDGQQMQVVTELKTEQDPNCSEPDAEGVSPPPVESQTPMDVDKQAIYRHPLFPLLALLFEKCEQSTQGSEGTTSASFDVDIENFVRKQEKEGKPFFCEDPETDNLMVKAAQVLRIHLLELEKVNELCKDFCSRYIACLKTKMNSETLLSGEPGSPYSPVQSQQIQSAITGTISPQGIVVPASALQQGNVAMATVAGGTVYQPVTVVTPQGQVVTQTLSPGTIRIQNSQLQLQLNQDLSILHQDDGSSKNKRGVLPKHATNVMRSWLFQHIGHPYPTEDEKKQIAAQTNLTLLQVNNWFINARRRILQPMLDSSCSETPKTKKKTAQNRPVQRFWPDSIASGVAQPPPSELTMSEGAVVTITTPVNMNVDSLQSLSSDGATLAVQQVMMAGQSEDESVDSTEEDAGALAPAHISGLVLENSDSLQ [chain 1 I122A] | ~0.79
2 | chain 1 MMATQTLSIDSYQDGQQMQVVTELKTEQDPNCSEPDAEGVSPPPVESQTPMDVDKQAIYRHPLFPLLAALFEKCEQSTQGSEGTTSASFDVDIENFVRKQEKEGKPFFCEDPETDNLMVKAIQVLRIHLLELEKVNELCKDFCSRYIACLKTKMNSETLLSGEPGSPYSPVQSQQIQSAITGTISPQGIVVPASALQQGNVAMATVAGGTVYQPVTVVTPQGQVVTQTLSPGTIRIQNSQLQLQLNQDLSILHQDDGSSKNKRGVLPKHATNVMRSWLFQHIGHPYPTEDEKKQIAAQTNLTLLQVNNWFINARRRILQPMLDSSCSETPKTKKKTAQNRPVQRFWPDSIASGVAQPPPSELTMSEGAVVTITTPVNMNVDSLQSLSSDGATLAVQQVMMAGQSEDESVDSTEEDAGALAPAHISGLVLENSDSLQ [chain 1 L69A] | ~1.1
3 | chain 1 MMATQTLSIDSYQDGQQMQVVTELKTEQDPNCSEPDAEGVSPPPVESQTPMDVDKQAIYRHPAFPLLALLFEKCEQSTQGSEGTTSASFDVDIENFVRKQEKEGKPFFCEDPETDNLMVKAIQVLRIHLLELEKVNELCKDFCSRYIACLKTKMNSETLLSGEPGSPYSPVQSQQIQSAITGTISPQGIVVPASALQQGNVAMATVAGGTVYQPVTVVTPQGQVVTQTLSPGTIRIQNSQLQLQLNQDLSILHQDDGSSKNKRGVLPKHATNVMRSWLFQHIGHPYPTEDEKKQIAAQTNLTLLQVNNWFINARRRILQPMLDSSCSETPKTKKKTAQNRPVQRFWPDSIASGVAQPPPSELTMSEGAVVTITTPVNMNVDSLQSLSSDGATLAVQQVMMAGQSEDESVDSTEEDAGALAPAHISGLVLENSDSLQ [chain 1 L63A] | ~0.6
4 | chain 1 MMATQTLSIDSYQDGQQMQVVTELKTEQDPNCSEPDAEGVSPPPVESQTPMDVDKQAIYRHPLFPLLALLFEKCEQSTQGSEGTTSASFDVDIENFVRKQEKEGKPFFCEDPETDNAMVKAIQVLRIHLLELEKVNELCKDFCSRYIACLKTKMNSETLLSGEPGSPYSPVQSQQIQSAITGTISPQGIVVPASALQQGNVAMATVAGGTVYQPVTVVTPQGQVVTQTLSPGTIRIQNSQLQLQLNQDLSILHQDDGSSKNKRGVLPKHATNVMRSWLFQHIGHPYPTEDEKKQIAAQTNLTLLQVNNWFINARRRILQPMLDSSCSETPKTKKKTAQNRPVQRFWPDSIASGVAQPPPSELTMSEGAVVTITTPVNMNVDSLQSLSSDGATLAVQQVMMAGQSEDESVDSTEEDAGALAPAHISGLVLENSDSLQ [chain 1 L117A] | ~0.48
5 | chain 1 MMATQTLSIDSYQDGQQMQVVTELKTEQDPNCSEPDAEGVSPPPVESQTPMDVDKQAIYRHPLFPLLALLFEKCEQSTQGSEGTTSASFDVDIENFVRKQEKEGKPFFCEDPETDNLMVKAIQVLRIHLLELEKVNELCKDFCSRYIACLKTKMNSETLLSGEPGSPYSPVQSQQIQSAITGTISPQGIVVPASALQQGNVAMATVAGGTVYQPVTVVTPQGQVVTQTLSPGTIRIQNSQLQLQLNQDLSALHQDDGSSKNKRGVLPKHATNVMRSWLFQHIGHPYPTEDEKKQIAAQTNLTLLQVNNWFINARRRILQPMLDSSCSETPKTKKKTAQNRPVQRFWPDSIASGVAQPPPSELTMSEGAVVTITTPVNMNVDSLQSLSSDGATLAVQQVMMAGQSEDESVDSTEEDAGALAPAHISGLVLENSDSLQ [chain 1 I251A] | ~0.88
6 | chain 1 MMATQTLSIDSYQDGQQMQVVTELKTEQDPNCSEPDAEGVSPPPVESQTPMDVDKQAIYRHPLFPLLALLFEKCEQSTQGSEGTTSASFDVDIENFVRKQEKEGKPFFCEDPETDNLMVKAIQVLRIHLLELEKVNELCKDFCSRYIACLKTKMNSETLLSGEPGSPYSPVQSQQIQSAITGTISPQGIVVPASALQQGNVAMATVAGGTVYQPVTVVTPQGQVVTQTLSPGTIRIQNSQLQLQLNQDASILHQDDGSSKNKRGVLPKHATNVMRSWLFQHIGHPYPTEDEKKQIAAQTNLTLLQVNNWFINARRRILQPMLDSSCSETPKTKKKTAQNRPVQRFWPDSIASGVAQPPPSELTMSEGAVVTITTPVNMNVDSLQSLSSDGATLAVQQVMMAGQSEDESVDSTEEDAGALAPAHISGLVLENSDSLQ [chain 1 L249A] | ~0.96
7 | chain 1 MMATQTLSIDSYQDGQQMQVVTELKTEQDPNCSEPDAEGVSPPPVESQTPMDVDKQAIYRHPAFPAAALAFEKCEQSTQGSEGTTSASFDVDIENFVRKQEKEGKPFFCEDPETDNLMVKAIQVLRIHLLELEKVNELCKDFCSRYIACLKTKMNSETLLSGEPGSPYSPVQSQQIQSAITGTISPQGIVVPASALQQGNVAMATVAGGTVYQPVTVVTPQGQVVTQTLSPGTIRIQNSQLQLQLNQDLSILHQDDGSSKNKRGVLPKHATNVMRSWLFQHIGHPYPTEDEKKQIAAQTNLTLLQVNNWFINARRRILQPMLDSSCSETPKTKKKTAQNRPVQRFWPDSIASGVAQPPPSELTMSEGAVVTITTPVNMNVDSLQSLSSDGATLAVQQVMMAGQSEDESVDSTEEDAGALAPAHISGLVLENSDSLQ [chain 1 L63A, chain 1 L66A, chain 1 L67A, chain 1 L70A] | ~0.58
8 | chain 1 MMATQTLSIDSYQDGQQMQVVTELKTEQDPNCSEPDAEGVSPPPVESQTPMDVDKQAIYRHPLFPLAALLFEKCEQSTQGSEGTTSASFDVDIENFVRKQEKEGKPFFCEDPETDNLMVKAIQVLRIHLLELEKVNELCKDFCSRYIACLKTKMNSETLLSGEPGSPYSPVQSQQIQSAITGTISPQGIVVPASALQQGNVAMATVAGGTVYQPVTVVTPQGQVVTQTLSPGTIRIQNSQLQLQLNQDLSILHQDDGSSKNKRGVLPKHATNVMRSWLFQHIGHPYPTEDEKKQIAAQTNLTLLQVNNWFINARRRILQPMLDSSCSETPKTKKKTAQNRPVQRFWPDSIASGVAQPPPSELTMSEGAVVTITTPVNMNVDSLQSLSSDGATLAVQQVMMAGQSEDESVDSTEEDAGALAPAHISGLVLENSDSLQ [chain 1 L67A] | ~0.65
9 | chain 1 MMATQTLSIDSYQDGQQMQVVTELKTEQDPNCSEPDAEGVSPPPVESQTPMDVDKQAIYRHPLFPLLALLFEKCEQSTQGSEGTTSASFDVDIENFVRKQEKEGKPFFCEDPETDNLMVKAIQALRIHLLELEKVNELCKDFCSRYIACLKTKMNSETLLSGEPGSPYSPVQSQQIQSAITGTISPQGIVVPASALQQGNVAMATVAGGTVYQPVTVVTPQGQVVTQTLSPGTIRIQNSQLQLQLNQDLSILHQDDGSSKNKRGVLPKHATNVMRSWLFQHIGHPYPTEDEKKQIAAQTNLTLLQVNNWFINARRRILQPMLDSSCSETPKTKKKTAQNRPVQRFWPDSIASGVAQPPPSELTMSEGAVVTITTPVNMNVDSLQSLSSDGATLAVQQVMMAGQSEDESVDSTEEDAGALAPAHISGLVLENSDSLQ [chain 1 V124A] | ~0.91

Variants of: B1
Test: ELISA; PBX1 0.5 µM (highest point of the titration); GST control signal subtracted; parent: 0.8; read off a plot

Row | Variant | response
10 | chain 1 MMATQTLSIDSYQDGQQMQVVTELKTEQDPNCSEPDAEGVSPPPVESQTPMDVDKQAIYRHPAFPAAALAFEKCEQSTQGSEGTTSASFDVDIENFVRKQEKEGKPFFCEDPETDNLMVKAIQVLRIHLLELEKVNELCKDFCSRYIACLKTKMNSETLLSGEPGSPYSPVQSQQIQSAITGTISPQGIVVPASALQQGNVAMATVAGGTVYQPVTVVTPQGQVVTQTLSPGTIRIQNSQLQLQLNQDLSILHQDDGSSKNKRGVLPKHATNVMRSWLFQHIGHPYPTEDEKKQIAAQTNLTLLQVNNWFINARRRILQPMLDSSCSETPKTKKKTAQNRPVQRFWPDSIASGVAQPPPSELTMSEGAVVTITTPVNMNVDSLQSLSSDGATLAVQQVMMAGQSEDESVDSTEEDAGALAPAHISGLVLENSDSLQ [chain 1 L63A, chain 1 L66A, chain 1 L67A, chain 1 L70A] | ~0.13 Abs, 495 nm

Variants of: B2
Test: TR-FIA; parent: 1; read off a plot

Row | Variant | ratio to parent
11 | chain 1 MDEQPRLMHSHAGVGMAGHPGLSQHLQDGAGGTEGEGGRKQDIGDILQQIMTITDQSLDEAQARKHALNCHRMKPALFNVLCEIKEKTVLSIRGAQEEEPTDPQAMRADNMLAAEGVAGPEKGGGSAAAAAAAAASGGAGSDNSVEHSDYRAKLSQIRQIYHTELEKYEQACNEFTTHVMNLLREQSRTRPISPKEIERMVSIIHRKFSSIQMQLKQSTCEAVMILRSRFLDARRKRRNFNKQATEILNEYFYSHLSNPYPSEEAKEELAKKCGITVSQVSNWFGNKRIRYKKNIGKFQEEANIYAAKTAVTATNVSAHGSQANSPSTPNSAGSSSSFNMSNSGDLFMSVQSLNGDSYQGAQVGANVQSQVDTLRHVISQTGGYSDGLAASQMYSPQGISANGGWQDATTPSSVTSPTEGPGSVHSDTSN [chain 1 L105A, chain 1 L108A, chain 1 L113A] | ~0.66
12 | chain 1 MDEQPRLMHSHAGVGMAGHPGLSQHLQDGAGGTEGEGGRKQDIGDILQQAMTATDQSLDEAQARKHALNCHRMKPALFNVLCEIKEKTVLSIRGAQEEEPTDPQLMRLDNMLLAEGVAGPEKGGGSAAAAAAAAASGGAGSDNSVEHSDYRAKLSQIRQIYHTELEKYEQACNEFTTHVMNLLREQSRTRPISPKEIERMVSIIHRKFSSIQMQLKQSTCEAVMILRSRFLDARRKRRNFNKQATEILNEYFYSHLSNPYPSEEAKEELAKKCGITVSQVSNWFGNKRIRYKKNIGKFQEEANIYAAKTAVTATNVSAHGSQANSPSTPNSAGSSSSFNMSNSGDLFMSVQSLNGDSYQGAQVGANVQSQVDTLRHVISQTGGYSDGLAASQMYSPQGISANGGWQDATTPSSVTSPTEGPGSVHSDTSN [chain 1 I50A, chain 1 I53A] | ~0.83
13 | chain 1 MDEQPRLMHSHAGVGMAGHPGLSQHLQDGAGGTEGEGGRKQDIGDILQQIMTITDQSLDEAQARKHALNCHRMKPALFNVACEIKEKTVLSIRGAQEEEPTDPQLMRLDNMLLAEGVAGPEKGGGSAAAAAAAAASGGAGSDNSVEHSDYRAKLSQIRQIYHTELEKYEQACNEFTTHVMNLLREQSRTRPISPKEIERMVSIIHRKFSSIQMQLKQSTCEAVMILRSRFLDARRKRRNFNKQATEILNEYFYSHLSNPYPSEEAKEELAKKCGITVSQVSNWFGNKRIRYKKNIGKFQEEANIYAAKTAVTATNVSAHGSQANSPSTPNSAGSSSSFNMSNSGDLFMSVQSLNGDSYQGAQVGANVQSQVDTLRHVISQTGGYSDGLAASQMYSPQGISANGGWQDATTPSSVTSPTEGPGSVHSDTSN [chain 1 L81A] | ~0.52
